Results taken from article PMC5615231.

Target: recombinant Aβ42 peptide (UniProt P05067)

Chain of extracellular chaperone clusterin (P10909 23-227): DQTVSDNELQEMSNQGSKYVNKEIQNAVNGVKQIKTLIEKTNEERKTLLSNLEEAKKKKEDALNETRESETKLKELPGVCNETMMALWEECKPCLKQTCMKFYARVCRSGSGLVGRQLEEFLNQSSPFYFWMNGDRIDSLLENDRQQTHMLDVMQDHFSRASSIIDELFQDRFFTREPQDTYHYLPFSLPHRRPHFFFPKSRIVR
Chain of extracellular chaperone clusterin (P10909 228-449): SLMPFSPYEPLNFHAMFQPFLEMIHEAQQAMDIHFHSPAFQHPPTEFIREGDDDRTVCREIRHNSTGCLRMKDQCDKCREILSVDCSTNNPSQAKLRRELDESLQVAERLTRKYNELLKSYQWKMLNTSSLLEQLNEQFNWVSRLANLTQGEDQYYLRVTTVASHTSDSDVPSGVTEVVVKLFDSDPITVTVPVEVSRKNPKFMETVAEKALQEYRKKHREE

concentration of clusterin required to reduce by half the Ca^2+ influx into lipid vesicles induced by Aβ42 oligomers (t2 aliquot; dilution series): 0.1 nM
Substance: extracellular chaperone clusterin (from UniProt P10909 23-227; P10909 228-449) (natural protein)
